Reference: paper doi:10.1101/2021.07.22.453368

What was measured:
[1] = molecular target: human Nogo 66 receptor 1 (human) (UniProt Q9BZR6); assay: flow cytometry on cells
[2] = molecular target: junctional adhesion molecule-A (human) (UniProt Q9Y624); assay: flow cytometry on cells
UniProt Q9Y624, sequence (Q9Y624 28-299): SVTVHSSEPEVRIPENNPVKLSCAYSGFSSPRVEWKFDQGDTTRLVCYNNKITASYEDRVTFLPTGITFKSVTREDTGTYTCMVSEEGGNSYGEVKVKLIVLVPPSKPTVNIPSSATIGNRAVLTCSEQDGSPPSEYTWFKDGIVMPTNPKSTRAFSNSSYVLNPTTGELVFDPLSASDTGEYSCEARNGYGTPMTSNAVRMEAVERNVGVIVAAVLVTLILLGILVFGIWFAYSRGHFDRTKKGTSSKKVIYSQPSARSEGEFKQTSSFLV

UniProt Q9BZR6, sequence (Q9BZR6 27-447): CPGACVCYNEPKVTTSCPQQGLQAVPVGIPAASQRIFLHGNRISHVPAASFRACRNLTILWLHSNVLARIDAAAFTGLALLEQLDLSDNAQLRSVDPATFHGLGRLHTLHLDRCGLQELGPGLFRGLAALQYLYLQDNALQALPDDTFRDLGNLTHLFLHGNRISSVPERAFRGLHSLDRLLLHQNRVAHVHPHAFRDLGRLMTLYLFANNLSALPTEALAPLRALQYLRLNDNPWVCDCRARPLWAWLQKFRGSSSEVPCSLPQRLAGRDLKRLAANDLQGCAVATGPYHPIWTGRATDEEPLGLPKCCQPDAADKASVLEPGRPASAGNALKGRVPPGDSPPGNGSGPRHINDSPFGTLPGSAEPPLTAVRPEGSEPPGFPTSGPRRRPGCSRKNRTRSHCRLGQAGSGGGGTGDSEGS

reovirus T3SA- virions (complex)
percent of receptor-expressing cells bound by reovirus [1]: > 50%
percent of receptor-expressing cells bound by reovirus [2]: > 50%
